From paper doi:10.1101/2024.07.12.603331 (bioRxiv, 2024)

Molecular target: neonatal Fc receptor (FcRn), recombinant ectodomains (UniProt P55899;P61769)
Assay: BLI

Sequence of neonatal Fc receptor (FcRn), recombinant ectodomains (P55899 24-297, chain 1 of 2): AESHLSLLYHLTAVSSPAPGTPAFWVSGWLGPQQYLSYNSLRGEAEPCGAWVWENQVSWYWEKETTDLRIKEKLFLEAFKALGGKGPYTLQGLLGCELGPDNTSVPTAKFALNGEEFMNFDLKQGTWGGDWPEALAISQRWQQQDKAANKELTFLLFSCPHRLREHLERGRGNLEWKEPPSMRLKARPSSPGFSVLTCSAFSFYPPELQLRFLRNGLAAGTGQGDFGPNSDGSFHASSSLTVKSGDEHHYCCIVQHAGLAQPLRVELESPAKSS
Sequence of neonatal Fc receptor (FcRn), recombinant ectodomains (P61769 21-119, chain 2 of 2): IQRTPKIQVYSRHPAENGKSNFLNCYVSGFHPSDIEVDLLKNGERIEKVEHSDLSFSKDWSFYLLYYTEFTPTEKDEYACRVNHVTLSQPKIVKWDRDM

B1: HAstV1 spike protein VP25 (residues S424 to R648) (domain or fragment)
chain: SIPAPGEEFKVVLTFGAPMSPNANNKQTWVNKPLDAPSGHYNVKIAKDVDHYLTMQGFTSIASVDWYTIDFQPSEAPAPIQGLQVLVNSSKKADVYAIKQFVTAQTNNKHQVTSLFLVKVTTGFQVNNYLSYFYRASATGDATTNLLVRGDTYTAGISFTQGGWYLLTNTSIVDGAMPPGWVWNNVELKTNTAYHMDKGLVHLIMPLPESTQMCYEMLTSIPRSR
modifications: biotin (EZ-link NHS-PEG4-Biotin)
How did the Kd turn out when B1 was run?
The Kd was 578 nM.
